B1: LA-1 (ssDNA)
DNA: AGCAGCACAGAGGTCAGATGGTGCTGCGAACTTAACGCAAGATAGGCTGGACGCGAGTCCCCTATGCGTGCTACCGTGAA
B2: LA-2 (ssDNA)
DNA: AGCAGCACAGAGGTCAGATGGGCTGCGAACAGTTGCATATGGCGCGACTCTAGGCGGGTCCCTATGCGTGCTACCGTGAA
B3: LA-9 (ssDNA)
DNA: AGCAGCACAGAGGTCAGATGCTGGGCTGCGAATGACGAATAAATACGCCGTTTCAGACGGCCTATGCGTGCTACCGTGAA
B4: LA-10 (ssDNA)
DNA: AGCAGCACAGAGGTCAGATGTAGTGCTGCGAAGTTGGCTCCGGCGGCGTCAGTCTAGCCGCCTATGCGTGCTACCGTGAA
B5: LA-11 (ssDNA)
DNA: AGCAGCACAGAGGTCAGATGTGGGTGCTGCGAAAGGACGGCATGGGGTCCAAAAGACCCCCCTATGCGTGCTACCGTGAA

target: T1, alpha-lactalbumin (α-La) (Bos taurus (bovine milk), UniProt P00711 20-142); assay: fluorescence graphene oxide (GO) assay; 50 mM Tris-HCl, 5 mM KCl, 100 mM NaCl, 1 mM MgCl2, pH 7.4; 100 nM FAM-aptamer, 0-400 ug/ml α-La, 1 h in the dark, then GO 15 min; assay temperature not stated (SELEX at 37 °C); conditions: protein: commercial; label: 5'-FAM; 5' stem-loop (predicted)
T1 sequence: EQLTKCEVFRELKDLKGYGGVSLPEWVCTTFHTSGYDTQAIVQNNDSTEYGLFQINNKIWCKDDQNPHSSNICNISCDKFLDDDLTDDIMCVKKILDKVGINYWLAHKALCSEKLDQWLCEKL

| Binder | Kd |
| --- | --- |
| B1 | 92.6 ± 18 nM |
| B2 | 101 ± 21.3 nM |
| B3 | 253 ± 32.2 nM |
| B4 | 168 ± 28.9 nM |
| B5 | 175 ± 28.3 nM |

same assay, conditions: protein: commercial; label: 5'-FAM; hairpin

| Binder | Kd |
| --- | --- |
| AGCAGCACAGAGGTCAGATGGTGCTGCGAA (structured_DNA) [LA-1t] | 14.1 ± 4.15 nM |
